Publication PMC10303687 (2023)

T1: p63_Dr (zebrafish, UniProt E9QG65)
T1 chain: GQDVLNQLLEML

T2: p73_Dr (zebrafish, UniProt A0A8M2BER5)
T2 chain: EGPTFEHLWSTL

T3: p53_Dr (Danio rerio (Zebrafish) (Brachydanio …, UniProt P79734))
T3 chain: DSQEFAELWEKNL

T4: p53_Gg (Gallus gallus (Chicken), UniProt P10360)
T4 chain: EPTEVFMDLWSML

B1: MDM2_Dr (protein)
chain: SQISKVDNEKLVRPKVQLKSLLEDAGADKDVFTMKEVMFYLGKYIMSKELYDKQQQHIVHCGEDPLGAVLGVKSFSVKEPRALFALINRNLVTVK
B2: MDM2_Gg (protein)
chain: SPVSASEQEALVKPKPLLLKLLKLAGAEKDTFTMKEVIFYLGQYIMSKQLYDEKEQHIVHCANDLLGDLFGVTSFSVKEHRRIYSMISRNLIAIN

Columns and labels:
Experiment in all cases: stopped flow koff/kon 10 C
p63_Dr = biological target: T1, p63_Dr
p73_Dr = biological target: T2, p73_Dr
p53_Dr = biological target: T3, p53_Dr
p53_Gg = biological target: T4, p53_Gg

| Kd (p63_Dr) | Kd (p73_Dr) | Kd (p53_Dr) | Kd (p53_Gg) | Binder |
| --- | --- | --- | --- | --- |
| 130 µM | 120 nM | 1900 nM |  | B1 |
|  |  |  | 90 nM | B2 |
